T1: PNPase WT (Escherichia coli, UniProt P05055 1-711)
T1 sequence: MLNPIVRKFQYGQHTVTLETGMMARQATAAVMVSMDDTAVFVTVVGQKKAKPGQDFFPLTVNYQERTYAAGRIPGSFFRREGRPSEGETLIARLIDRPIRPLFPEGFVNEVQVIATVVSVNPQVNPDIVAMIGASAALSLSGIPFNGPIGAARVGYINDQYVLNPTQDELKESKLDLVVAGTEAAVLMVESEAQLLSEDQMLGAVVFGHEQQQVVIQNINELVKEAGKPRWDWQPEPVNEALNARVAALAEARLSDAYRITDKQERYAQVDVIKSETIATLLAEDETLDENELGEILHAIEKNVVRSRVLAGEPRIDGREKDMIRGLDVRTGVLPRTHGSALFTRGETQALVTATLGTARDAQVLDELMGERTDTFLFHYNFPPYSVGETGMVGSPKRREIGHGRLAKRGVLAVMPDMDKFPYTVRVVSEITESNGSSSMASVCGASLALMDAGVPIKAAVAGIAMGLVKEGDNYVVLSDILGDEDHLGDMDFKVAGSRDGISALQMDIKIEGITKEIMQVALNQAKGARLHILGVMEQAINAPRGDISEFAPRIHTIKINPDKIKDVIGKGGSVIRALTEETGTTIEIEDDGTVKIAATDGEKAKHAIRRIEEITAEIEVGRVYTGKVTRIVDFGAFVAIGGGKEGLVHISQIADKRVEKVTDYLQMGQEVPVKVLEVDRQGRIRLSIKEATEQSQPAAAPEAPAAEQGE

B1: CyaR (structured_RNA)
RNA: GCUGAAAAACAUAACCCAUAAAAUGCUAGCUGUACCAGGAACCACCUCCUUAGCCUGUGUAAUCUCCCUUACACGGGCUUAUUUUUU
B2: 3'ETSleuZ (structured_RNA)
RNA: GGGAAAGAUAAGAAUAAAAUCAAAGCAAUAAGCAGUGUCGUGAAACCACCUUCGGGUGGUUUUUUU

What was measured:
[1] = biological target: T2, PNPase WT;Hfq (Escherichia coli;Escherichia coli, UniProt P05055;P0A6X3 1-711;1-102, |); test: cryo-EM; two stacked Hfq hexamers; EMSA: 0.4 uM RNA, PNPase trimer 1:1 and 3:1 over RNA, 20 mM Tris pH 7.5, 100 mM NaCl, 1 mM MgCl2, 1 mM DTT, 30 C 20 min; native PAA gel with 10% glycerol, Tris-glycine pH 8.5; settings: protein: recombinant;recombinant; tags: ;; chain copies: 3;12; single strand
[2] = biological target: T2, PNPase WT;Hfq; test: cryo-EM; carrier complex; 50 RNA nt modelled; EMSA: 0.4 uM RNA, PNPase trimer 1:1 and 3:1 over RNA, 20 mM Tris pH 7.5, 100 mM NaCl, 1 mM MgCl2, 1 mM DTT, 30 C 20 min; native PAA gel with 10% glycerol, Tris-glycine pH 8.5; settings: protein: recombinant;recombinant; tags: ;; chain copies: 3;6; single strand with hairpin
[3] = biological target: T1, PNPase WT; test: cryo-EM; phosphorolytic mode; 8 RNA nt modelled; EMSA: 0.4 uM RNA, PNPase trimer 1:1 and 3:1 over RNA, 20 mM Tris pH 7.5, 100 mM NaCl, 1 mM MgCl2, 1 mM DTT, 30 C 20 min; native PAA gel with 10% glycerol, Tris-glycine pH 8.5; settings: protein: recombinant; chain copies: 3; single strand with hairpin

Binder	binding result [1]	binding result [2]	binding result [3]
B1	binds		
B2		binds	binds

Reference: article PMC8294330, “A cooperative PNPase-Hfq-RNA carrier complex facilitates bacterial riboregulation”
